Earlier results as cited in publication PMC11589041.
“And” between values parts separate entries of the source, which are not always exact repeats. Equal values may be shown once.

Columns and labels:
[1] = biological target: INF2 DAD DAD (Homo sapiens) (UniProt Q27J81)
[2] = biological target: mDia1 DAD DAD (Mus musculus) (UniProt O08808)
Sequence of mDia1 DAD DAD (Mus musculus) (O08808 1174-1208): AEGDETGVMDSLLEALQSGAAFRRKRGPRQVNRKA

Sequence of INF2 DAD DAD (Homo sapiens) (Q27J81 967-1000): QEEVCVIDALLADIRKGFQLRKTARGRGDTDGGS
Sequence of INF2 DID DID (Q27J81 1-267): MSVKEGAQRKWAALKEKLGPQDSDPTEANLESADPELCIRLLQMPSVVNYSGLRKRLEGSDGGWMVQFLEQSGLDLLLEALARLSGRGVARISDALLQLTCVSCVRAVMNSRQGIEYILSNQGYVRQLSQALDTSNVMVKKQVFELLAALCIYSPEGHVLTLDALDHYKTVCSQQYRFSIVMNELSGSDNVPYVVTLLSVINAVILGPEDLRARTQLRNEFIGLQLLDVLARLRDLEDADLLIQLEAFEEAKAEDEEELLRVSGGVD
Sequence of mDia1 DID DID (O08808 129-369): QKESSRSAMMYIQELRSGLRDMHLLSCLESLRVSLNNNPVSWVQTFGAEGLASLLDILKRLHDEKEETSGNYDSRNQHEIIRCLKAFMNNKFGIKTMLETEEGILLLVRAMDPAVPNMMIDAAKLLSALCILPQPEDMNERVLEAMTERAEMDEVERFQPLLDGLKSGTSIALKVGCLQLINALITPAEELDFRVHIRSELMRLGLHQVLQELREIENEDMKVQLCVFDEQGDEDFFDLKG

Row | Substance | Kd [1] | Kd [2] [µM]
1 | INF2 DID DID (from UniProt Q27J81) | 22 µM and 5.4 µM | 
2 | mDia1 DID DID (from UniProt O08808) |  | 0.265
